For 34 variants, abundance fitness results are on record in the Human Domainome abundance scans (Beltran et al. 2025).

± gives the uncertainty stated by the source.

First the molecules themselves.
B1: Ankyrin-1, residues 1405 to 1484; numbered along this chain, P16157 (parent)
chain: MKMAVISEHLGLSWAELARELQFSVEDINRIRVENPNSLLEQSVALLNLWVIREGQNANMENLYTALQSIDRGEIVNMLE

In the data set the parent is B1. Description: abundance fitness (aPCA) (normalised: wild type 0, dead -1); higher = more abundant; growth selection in yeast, the domain comes from the species named. To be noted: Homo sapiens.
As to MKMAVISEHLGLSWAELARELQFSVEDINRIRVENPNSLLEQSVALLNLWVIREGQNANMETLYTALQSIDRGEIVNMLE, the abundance fitness is 0.211 ± 0.1.
On to MKMAVISEHLGLSWAELARELQFSVEDINRIRVENPNSLLEQSVALLNLWVIREGQNANMERLYTALQSIDRGEIVNMLE, for which the abundance fitness was 0.032 ± 0.1.
The result for MKMAVISEHLGLSWAELARELQFSVEDINRIRVENPNSLLEQSVALLNLWVIREGQNANMEALYTALQSIDRGEIVNMLE reads -0.045 ± 0.079; that for MKMAVISEHLGLSWAELARELQFSVEDINRIRVENPNSLLEQSVALLNLWVIREGQNANMEDLYTALQSIDRGEIVNMLE, 0.109 ± 0.11.
In the case of MKMAVISEHLGLSWAELARELQFSVEDINRIRVENPNSLLEQSVALLNLWVIREGQNANMEVLYTALQSIDRGEIVNMLE, the abundance fitness was 0.071 ± 0.065.
Consider MKMAVISEHLGLSWAELARELQFSVEDINRIRVENPNSLLEQSVALLNLWVIREGQNANMEELYTALQSIDRGEIVNMLE, for which the abundance fitness was -0.197 ± 0.17.
For MKMAVISEHLGLSWAELARELQFSVEDINRIRVENPNSLLEQSVALLNLWVIREGQNANMEILYTALQSIDRGEIVNMLE, the abundance fitness was 0.089 ± 0.089.
On to MKMAVISEHLGLSWAELARELQFSVEDINRIRVENPNSLLEQSVALLNLWVIREGQNANMELLYTALQSIDRGEIVNMLE, for which the abundance fitness is -0.037 ± 0.09.
Take MKMAVISEHLGLSWAELARELQFSVEDINRIRVENPNSLLEQSVALLNLWVIREGQNANMECLYTALQSIDRGEIVNMLE: the abundance fitness is -0.126 ± 0.11.
Consider MKMAVISEHLGLSWAELARELQFSVEDINRIRVENPNSLLEQSVALLNLWVIREGQNANMESLYTALQSIDRGEIVNMLE, for which the abundance fitness was -0.081 ± 0.076.
With MKMAVISEHLGLSWAELARELQFSVEDINRIRVENPNSLLEQSVALLNLWVIREGQNANMEYLYTALQSIDRGEIVNMLE, the abundance fitness stood at 0.002 ± 0.11.
Consider MKMAVISEHLGLSWAELARELQFSVEDINRIRVENPNSLLEQSVALLNLWVIREGQNANMEPLYTALQSIDRGEIVNMLE, for which the abundance fitness is -0.265 ± 0.15.
Consider MKMAVISEHLGLSWAELARELQFSVEDINRIRVENPNSLLEQSVALLNLWVIREGQNANMEFLYTALQSIDRGEIVNMLE, for which the abundance fitness is 0.034 ± 0.13.
With MKMAVISEHLGLSWAELARELQFSVEDINRIRVENPNSLLEQSVALLNLWVIREGQNANMENLGTALQSIDRGEIVNMLE, the abundance fitness was -0.274 ± 0.056.
Turning to MKMAVISEHLGLSWAELARELQFSVEDINRIRVENPNSLLEQSVALLNLWVIREGQNANMENLITALQSIDRGEIVNMLE, the abundance fitness is -0.302 ± 0.13.
To MKMAVISEHLGLSWAELARELQFSVEDINRIRVENPNSLLEQSVALLNLWVIREGQNANMENLETALQSIDRGEIVNMLE belongs -0.353 ± 0.096.
For the variant MKMAVISEHLGLSWAELARELQFSVEDINRIRVENPNSLLEQSVALLNLWVIREGQNANMENLWTALQSIDRGEIVNMLE, the abundance fitness was -0.531 ± 0.084.
To MKMAVISEHLGLSWAELARELQFSVEDINRIRVENPNSLLEQSVALLNLWVIREGQNANMENLHTALQSIDRGEIVNMLE belongs -0.312 ± 0.17; to MKMAVISEHLGLSWAELARELQFSVEDINRIRVENPNSLLEQSVALLNLWVIREGQNANMENLTTALQSIDRGEIVNMLE, -0.049 ± 0.1; to MKMAVISEHLGLSWAELARELQFSVEDINRIRVENPNSLLEQSVALLNLWVIREGQNANMENLRTALQSIDRGEIVNMLE, -0.407 ± 0.056.
As for MKMAVISEHLGLSWAELARELQFSVEDINRIRVENPNSLLEQSVALLNLWVIREGQNANMENLMTALQSIDRGEIVNMLE, the abundance fitness is -0.185 ± 0.11.
For the variant MKMAVISEHLGLSWAELARELQFSVEDINRIRVENPNSLLEQSVALLNLWVIREGQNANMENLQTALQSIDRGEIVNMLE, the abundance fitness is -0.594 ± 0.2.
For MKMAVISEHLGLSWAELARELQFSVEDINRIRVENPNSLLEQSVALLNLWVIREGQNANMENLPTALQSIDRGEIVNMLE, the abundance fitness is -0.725 ± 0.22.
Take MKMAVISEHLGLSWAELARELQFSVEDINRIRVENPNSLLEQSVALLNLWVIREGQNANMENLATALQSIDRGEIVNMLE: the abundance fitness was -0.494 ± 0.12.
Regarding MKMAVISEHLGLSWAELARELQFSVEDINRIRVENPNSLLEQSVALLNLWVIREGQNANMENLVTALQSIDRGEIVNMLE, the abundance fitness is -0.225 ± 0.061.
The result for MKMAVISEHLGLSWAELARELQFSVEDINRIRVENPNSLLEQSVALLNLWVIREGQNANMENLLTALQSIDRGEIVNMLE reads -0.172 ± 0.067; that for MKMAVISEHLGLSWAELARELQFSVEDINRIRVENPNSLLEQSVALLNLWVIREGQNANMENLCTALQSIDRGEIVNMLE, -0.24 ± 0.084.
Consider MKMAVISEHLGLSWAELARELQFSVEDINRIRVENPNSLLEQSVALLNLWVIREGQNANMENLKTALQSIDRGEIVNMLE, for which the abundance fitness is -0.473 ± 0.2.
The result for MKMAVISEHLGLSWAELARELQFSVEDINRIRVENPNSLLEQSVALLNLWVIREGQNANMENLDTALQSIDRGEIVNMLE reads -0.797 ± 0.44.
In the case of MKMAVISEHLGLSWAELARELQFSVEDINRIRVENPNSLLEQSVALLNLWVIREGQNANMENLNTALQSIDRGEIVNMLE, the abundance fitness was determined as 0.087 ± 0.2.
For the variant MKMAVISEHLGLSWAELARELQFSVEDINRIRVENPNSLLEQSVALLNLWVIREGQNANMENEYTALQSIDRGEIVNMLE, the abundance fitness is -0.646 ± 0.24.
Take MKMAVISEHLGLSWAELARELQFSVEDINRIRVENPNSLLEQSVALLNLWVIREGQNANMENCYTALQSIDRGEIVNMLE: the abundance fitness was -0.748 ± 0.3.
On to MKMAVISEHLGLSWAELARELQFSVEDINRIRVENPNSLLEQSVALLNLWVIREGQNANMENWYTALQSIDRGEIVNMLE, for which the abundance fitness was -0.693 ± 0.22.
For MKMAVISEHLGLSWAELARELQFSVEDINRIRVENPNSLLEQSVALLNLWVIREGQNANMENAYTALQSIDRGEIVNMLE, the abundance fitness is -0.79 ± 0.2.
